PMC5887453 (Nucleic Acids Research, 2018)
Numbering of substitutions follows the chain as printed.

Columns and labels:
Assay in all cases: native gel or EMSA
PhoEF-2 L214S/V216S = molecular target: T1, PhoEF-2 L214S/V216S (Pyrococcus horikoshii, UniProt O59521 1-732, L214S | V216S)
T1 sequence (looked up): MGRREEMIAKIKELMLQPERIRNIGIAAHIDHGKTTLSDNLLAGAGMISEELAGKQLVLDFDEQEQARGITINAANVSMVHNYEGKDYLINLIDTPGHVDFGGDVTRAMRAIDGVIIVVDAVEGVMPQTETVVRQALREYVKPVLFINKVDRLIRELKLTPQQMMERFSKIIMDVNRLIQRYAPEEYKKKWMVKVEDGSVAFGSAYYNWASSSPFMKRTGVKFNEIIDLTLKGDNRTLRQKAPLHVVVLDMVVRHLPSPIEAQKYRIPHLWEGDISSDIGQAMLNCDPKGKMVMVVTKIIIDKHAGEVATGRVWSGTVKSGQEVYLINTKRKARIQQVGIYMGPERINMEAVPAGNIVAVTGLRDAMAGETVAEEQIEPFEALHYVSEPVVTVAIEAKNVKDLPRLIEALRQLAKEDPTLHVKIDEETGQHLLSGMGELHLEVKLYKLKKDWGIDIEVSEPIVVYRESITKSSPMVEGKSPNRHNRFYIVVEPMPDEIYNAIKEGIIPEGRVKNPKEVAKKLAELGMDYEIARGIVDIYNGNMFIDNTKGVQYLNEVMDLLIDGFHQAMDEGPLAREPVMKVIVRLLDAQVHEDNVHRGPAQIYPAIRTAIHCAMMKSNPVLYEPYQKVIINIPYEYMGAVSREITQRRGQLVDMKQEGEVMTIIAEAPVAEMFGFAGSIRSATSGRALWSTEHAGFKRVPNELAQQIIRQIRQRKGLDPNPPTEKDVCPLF

PhoEF-2 V198S = molecular target: T2, PhoEF-2 V198S (Pyrococcus horikoshii, UniProt O59521 1-732, V198S)
T2 sequence (looked up): T1 sequence (looked up) with V195S, S211L, S213V

PhoEF-2 M219S = molecular target: T3, PhoEF-2 M219S (Pyrococcus horikoshii, UniProt O59521 1-732, M219S)
T3 sequence (looked up): T1 sequence (looked up) with S211L, S213V, M216S

Measured: binding result

B1: Pyrococcus horikoshii ribosomal stalk protein P1 (natural protein, UniProt O57705 1-108, looked up)
chain: MEYVYAALLLHSVGKEINEENLKAVLQAAGVEPEEARIKALVAALEGVNIDEVIEKAAMPVAVAAAPAAAPAEAGGEEKKEEEKKEEEEKEEEVSEEEALAGLSALFG
modifications: in the SPR only: biotin on amino groups via a PEG linker (EZ-Link NHS-PEG4-Biotin)
binds: PhoEF-2 L214S/V216S | PhoEF-2 V198S | PhoEF-2 M219S
